According to the DeepSol protein solubility set:

Test: soluble on expression in E. coli; label from the status in PepcDB or PDB records

Soluble on expression in E. coli, not soluble:
MGSDKIHHHHHHMALIITKKAADLPKPKKPVIGLALGSGAAKGWAHIGVLNGLAKLGIFPDKVAGCSVGALVGAAYANDNLDEIEKWVRGFSSWDVLGLMDIRWRKGGIINGEKVFEVLSSRVGALKIEQLKRAFAAVATDLYSGQEIWFREGDLRHAVRASCSMPGFLPPVQQDDRWLVDGAVVNPVPVSLCRAMGVDLVIAVDLNGHRRGQMMMLPEQVVSHQAEKSQTVTEKPQLESGFMDLWGKSKEYLSGLTEKFSLGVNSHPGMLAVMSQSMDILEQRHKRARLMGDPPDICIVPQVFDIGTMEFHRAAEAIAAGEQAVENISHLLKASIGDFDSAPQR
MGSDKIHHHHHHMALRLRKENDLWVQTFKAAGQSHLHRVEEEVFLGKCDQEPDLNLELYKDNKAVTDLITQALGSEVEKLSLQFETDVQRTYHVFEADDTAIEVCLDDGAVKTATAQSKICEVEFELKQGAVKTLIQFAQQWINRYELWLDVRSKAERGNLLALGQAASPAVHAKNLNLDKNISAEQALKKIVENCLGQFLPNMAAIADGVAEAEHIHQARVSLRRLRSALKHFSAWSDELNPVWEEQIAELFRQLGDTRDEDAIRTEILPMIVQHGSPELLLPISEQPLKDLATLFKSADTIKLILALLAFAYSEEDNQNGKGKLKKQIGKSLDKLHHQVVSNADHFTELEVTEQHRTRKKAKQLRYCIEFISSLYPRKNIQQFLKQLQPVQNTLGLYNDLFIAEDLFNKAIEHDPHFWFALGWVKAKQPYLQNQSAEALQKFKQAKTFW
MGSDKIHHHHHHMALSERLSRFLARKGITYQPLETEPVANLDAAVLASGKPQHDFIKATLLIDINGVVMVVHRFDSTLDMDAVHQFTGRRLQPLTARQTSRLFGDCDAGFVPPIGAAWELPVLVDEDVVTAESVIFSGGTDHSLVEMDGRAFRLAQAGARQGHLVIRGQGGEDREALTLEDVADKLQKLYRLPPMPALALRILRLTANTEATAKELAELIEFDPSMTAQIMRYARSALFNYPGQINSVQEAVTRVLGFDRVAHIALGIASVRAFDVPRGGMLGMDNFWRHSLYCAFLCQNLAAYSGRDKGLAYLCGLLHNFGLLLVGHLFPSEFEELNALREINPEASMHSLEQEVFGHSERQDILAVGHGAIGGILHRLWQLPEAVIKAAGMHQHIGYHGEHEEYVQMVQLANAILKERGIGDELNPDDLPALVESLGLRADVLERVQSDMDQVASDLDVLASSLAS
MGSDKIHHHHHHMAQHVIEMREITKKFDDFVANDHINLDLRKGEIHALLGENGAGKSTLMNMLAGLLEPTSGSIKINGSAVTIDSPSKSAQLGIGMVHQHFMLVEAFTVTENIILGNEVVKNGILDLKKAGQEIKALSEKYGLAVDPNAKIADISVGAQQRVEILKTLYRGADILIFDEPTAVLTPSEIQELMTIMKSLVKEGKSIILITHKLDEIRSVADRVTVIRRGKSIETVEVSGTTSQDLAEMMVGRSVSFTIEKTPTKPKETILSIKDLVVNENRGIPAIKGLSLEVKAGEIIGIAGIDGNGQSELVQAITGLRKIKSGHLTIKGQDVTKLSTRKITELSVGHVPEDRHRDGLILELTMAENLALQTYYKAPLSHNGVLNYSKINEHGRHLMQEFDVRGANELIPAKGFSGGNQQKAIIAREVDRDPDLLIVSQPTRGLDVGAIEYIHKRLIAERDEGKAVLLVSFELDEILNLSDRIAVIHDGQIQGIVTPETTNKQELGILMAGGSIEREEINV
MGSDKIHHHHHHMAQPGKILKEQKYDRQLRLWGDHGQEALESAHVCLINATATGTEILKNLVLPGIGSFTIIDGNLVSGEDAGNNFFLQKSSIGKNRAQAAMEFLQELNSDVSGSFVEESPENLLDNDPSFFCRFTIVVATQLLESTLLRLADVLWNSQIPLLICRTYGLVGYMRIIIKEHPVIESHPDNALEDLRLDKPFPELREHLQSYDLDHMEKKDHSHTPWIVIIAKYLAQWYNETNGRIPKSYKEKEDFRDLIRQGILKNENGAPEDEENFEEAIKNVNTALNTTQIPSSIEDIFNDDRCINITKQTPTFWILARALKEFVAKEGQGNLPVRGTIPDMIADSNKYIKLQNVYREKAKKDAAAVGNHVAKLLQSVGQAPESISEKELKLLCSNSAFLRVVRCRSLAEEYGLDTVNKDEIISSMDNPDNEIVLYLMLRAVDRFHKQHGRYPGVSNYQVEEDIGKLKSCLTGFLQEYGLSVMVKDDYVHEFCRYGAAEPHTIAAFLGGAAAQEVIKIITKQFVIFNNTYIYSGMSQTSATFQL
MGSDKIHHHHHHMARHGKGPKTNKKKLAPEKERFIQCCADITLELTDSLTSGTTREINLNGLITKYSKKYKLKQQPRLTDIINSIPDQYKKYLLPKLKAKPVRTASGIAVVAVMCKPHRCPHIAYTGNICVYCPGGPDSDFEYSTQSYTGYEPTSMRAIRARYDPYEQARGRVEQLKQLGHSIDKVEYVLMGGTFMSLPKEYREDFIVKLHNALSGFNGNDIDEAILYSQQSLTKCVGITIETRPDYCTQTHLDDMLKYGCTRLEIGVQSLYEDVARDTNRGHTVRSVCETFAVSKDAGYKVVSHMMPDLPNVGMERDIEQFKEYFENPDFRTDGLKIYPTLVIRGTGLYELWKTGRYKSYSANALVDLVARILALVPPWTRIYRVQRDIPMPLVTSGVDNGNLRELALARMKDLGTTCRDVRTREVGIQEVHHKVQPDQVELIRRDYYANGGWETFLSYEDPKKDILIGLLRLRKASKKYTYRKEFTSQRTSIVRELHVYGSVVPLHSRDPRKFQHQGFGTLLMEEAERIAKEEHGSEKISVISGVGVRNYYGKLGYELDGPYMSKRI
MGSDKIHHHHHHMARLLSELQPSEFDITVVAIADTPPDVVSMLPDHVEVKHLKMTRRTALLQLGEISKIVKSTDILVCSLFHATAIGVPLGLLLQVPKLLVWQHSTSYSNQIRSAYYRLAYRAADRVLADSDAVMEMLVDSVGVPDQKISTLPIAGIDVKEYQPSKTHPSHENITVSTVGRLANVKGYDDLIRCARDIGDDLQFQIAGEGEERERLESKTPDNVNFQGMVPNEQIPQFLNNSDIYFQPSKYEGLCMAVIEAMACGLPVVASDVGGITESVVPGETGFLCRPRDIDCFSERLQQLSENPALRKQMGTAGRKRVISEYSQKALARQFRKAIDQTETV
MGSDKIHHHHHHMARRYVVVGGGPAGVVCAETLRRQDAEGSITLVCAEPGPPYSRMAIPYAMSGKIDESGTWLRKDWGHYEALGIALLHDRVTGVDSGARQVRLESGAPLSYDALLIATGSSPARPRVPGLDLPGVHSCWTLEDLRRIDPLLKPGRRVLLLGAGFVSCIILQSLVQRGAKVTVSCGSSGRMVRSMMDETAGGMIMRWCRAKGVEVLTAGRPTAIEQRDSGLLVTLDSGKSAEADLVIVGTGVKTNTAFLEGSGIAIEDGIIVDQYLGTNVPGIWAAGDVAQGFNCCTGLTEVHAIQPTAVEHGRVAAMNMSGHPTPFGGSLSMNTLETLGLISCSFGQWMGAEGGKQVRMVDEEHFRYLRLEFQGDRLVGANTVGMTNEIGIIRGLIQTKLRLGEWLERLTQDPSRLAEAYVACAQGV
MGSDKIHHHHHHMASESNQVIQRLFQRFFRDELAGLSPADRAAFESEFEGRYGELLDRSSSATTTSFADLVGFGDGPIKPFDSLQMPLLRNDFDESIIPPQLQASAELYYIYQMDRMKLFQVVDVLRRLFQNGQIRIQRGPGARGLYILEKWRPIRYKRRDRLIAYRRVFNYGRAPVPAGAIVNRSFHFQLVAFMNAMSQYFQDLTIGQVIRGSSTINDRPFAALATVQRVGTDLRYHLDRSSYGNILALTRETGQYVQQIFELFDAPDIKKSFDANTKWDVIEAVANRHLGGATEMSERAKMADAGRRILQYIAENDFRTTITPAEFDADAKKMGAQADAWLAAYRLTREGRRFPGLDGDRVHWSYGLNRNTASRIAA
MGSDKIHHHHHHMASFIASDQDVKNFLTAPSMNDQEGIGFAYATDEAVLKALIPAPLKLMAPVVCGYVVHMGKPTFSAPYLEESLFALVSYKDKMMGAYPINLLLHGPGAESGVIAGREGAGIPKKLADDIELRRNDNSATATVERHGKTLLNVSWTAGELNDPSIMKQFAGQLALGKEAEMNSFFYKYDIDQHEDGTNHFSNVQLVATQLRSLADQVEPGNLSIQLESTDDDPFGELKVLKPLGAAWFHFDTSVMFNTLKLDEVDAATTMPKLLTGRYDRSFFNPKAATYII
MGSDKIHHHHHHMASLTANIQTQEERKRSLPAQLVVSLVIAMSLWSKDSMRDVLKNLIDGLSEAWLKVGKYWRVACKSAITQARQRLGARVMCKLFHQLVKPMATQETLGAFLQELRIVVIDGSCFDVPDSDENARVFGRPGSRPGTKAAFPKVRLVILVEAGTHIIFDALMWPYRIGERVRALRLLRSVTPGMLLMWDRGLHSYAMVQATVTKGCDYLGRIPANIKFIAEKPLEDGSYLSWIYPSGKLRKKASQPILVRIIEYTIEHPDNPTEQLTYRLITSLLNIEKFPAELLAREYHQRWEVENTIDELKIHLLGRKTHVRSQKPREVVQEVYAWLLGHWTVRLLMFQAATSAGVAPLRLSFTGTLRVIRRAVPKFQRLNSQDLPLFLSG
MGSDKIHHHHHHMATELPSLKGLQAFEAAARYRSVTLASNELNVTPGAVSLQIRELEARLGVQLFFRKPRSIQLTREGERYYGALRTAFRMMREATAELTARSEITVLTLSCTPTFAVQWLMPRLPSFQQQHPHVDVRISVTNRLVDFSRDDVDLAVRHGFGRYEGLESIRFIDDSTLPVCAPQLLEKYGPLREAGDLKSVPLLHDENRNEWRRWLEAAGASEVDASGGTVFIDSNGALDAAKAGHGIALTRRSLVSRELVEGALIAPFGTDMASTLAYFLVYPRRMLDNPDLVTLIDWMLSQAGSTEAGSL
MGSDKIHHHHHHMATNTGHSNPKEALTFMNAPQLDIHQPRIAAFFDLDKTIIATSSALAYGREFMHSGLITPAEALQMSMAKATYMFSGYSSEQMDHTKNQLAHLITGWSEEQVREIANDTLQSVVAPAIYAEARDLIHMHQETGHDVVIISASARILVEAIAAELGVDQVVATELTVVDGKFTGEVPFYCKGAAKAQAILDLTDKRGYQLDRSFAYSDSITDLPMLEAVGNPRAVNPDRALKKVALDRDWEIHTFKNPVALFSKPTKRDLQISTGVAAGVAAVVGSVMWWKSLNGRSDRLRLSCTRDPGTQM
MGSDKIHHHHHHMAVKRAYYGNDGDRDYFERVFQSANINFLIGSGASLPAINVLGTIENDLQQLINDEKEDEYFNMAAGFLSAVWLPHEYILDRGNDVAFPPPVISNVDYTRKNYDAFISSLEKILTRRRTGLLPRRINVFTTNYDLFIEEAATRNNNILFNDGFNKRMNVWGDEEFDAGSFNYSVSATGNLYNYKVELPTVNLIKLHGSFSWKHYKGRIIYNIGEKKPLNFATPAEMKKWVLAHALILPRKEKFKETLLQNVYYDLLRTYSNELDKEATLLVVFGFSFADEHLEMLTKKALRNATLKLLIFAFNEASVGGFMENFRDYSNVEIIYRPGGNVDFPVMNNIITCYLGGAR
MGSDKIHHHHHHMCGHAKGGLTVLVSSRACPPQVQHRYLKTVLYLDCPQEVGDQSSPWWLLNIGYWLYGSACMLCKAAFGIELATEPQMEFSAHKGTTSISLVRDALQGAELRGLDVATVLSHAHIDPRLLDQRYARVPAGTFSRLWIALADLLDDEFFAADSHPLRRGSFKLMAQLALGCDTIGQALKRILAFLRTALDDIYGSVECEGEHAAIIIHDHGELRRVFCYGAWLVLVHGLLCWLCDRRIPIVKLSMRPPQPVDDSDYRMRFCEEIEWRADRTSAVFEKSFLAYKVCQTPVSLPAFLKGTPSNFLVKYRNDDSTSIMIRRRLKLLSPHTWPELDELARDLSMSSSTLQRRLYAEGFTYQRLKDNLRRDISISLLCRAGMTVDGVASEVGFIETSAFHRAFKKWTGITPGAYRRSLLSPRGD
